Source: US20170137511A1 (CALYPSO BIOTECH, published 2017)
Changes are numbered by the printed parent chain.

T1: recombinant rat IL-15 (Sigma cat. no. SRP4172) (rat, UniProt P97604 49-162)
T1 sequence: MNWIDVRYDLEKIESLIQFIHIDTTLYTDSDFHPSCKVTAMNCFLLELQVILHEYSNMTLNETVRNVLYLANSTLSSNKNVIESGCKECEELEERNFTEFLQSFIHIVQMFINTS

T2: recombinant mouse IL-15 (R&D Systems cat. no. 447-ML) (mouse, UniProt P48346 49-162)
T2 sequence: T1 sequence with F19S, I82A, R95K, N96T, H106R

B1: huB-E29-2 (antibody, human IgG1, kappa)
heavy: not shown
light: DVVMTQSPLSLPVTLGQPASISCRSSQSIVDITGNTYLEWYQQRPGQSPRLLIYKVFNRFSGVPDRFSGSGSGTDFTLKISRVEAEDVGVYYCFQDSFVPYTFGQGTKLEIKRTVAAPSVFIFPPSDEQLKSGTASVVCLLNNFYPREAKVQWKVDNALQSGNSQESVTEQDSKDSTYSLSSTLTLSKADYEKHKVYACEVTHQGLSSPVTKSFNRGEC
notes: Humanized B-E29 variant; human IgG1 (G1m3) / kappa (Km3), produced in CHO cells; also called huVH2/huVL1
B2: mouse anti-IL-15 monoclonal antibody B-E29 (antibody, V domains shown)
VH: EVRLMASGGGLVKPGGSLKLSCAASEFTFSNYAMSWVRQTPEKRLEWVATISRGGDYTYYPDSVKGRFTISRDNAKNTLYLQMSSLRSEDTALYYCARRVSMITGGWAMDYWGQGTSVTVSS
VL: DVLMTQTPLSLPVSLGDQASISCRSSQSIVDITGNTYLEWYLQKPGQSPKLLIYKVFNRFSGVPDRFSGSGSGTDFTLKISRVEAEDLGLYYCFQDSFVPYTFGGGTKLEIK
notes: Mouse IgG1 (heavy chain) kappa (light chain); also called mouse B-E29; comparative antibody 1

Assays:
[1] = target: T3, human IL-15 (preparation not stated) (human, UniProt P40933 49-162, limits assumed); assay: cell-based or functional assay
[2] = target: T4, recombinant Macaque Monkey IL-15 (MyBiosource cat. no. MBS948894) (Rhesus macaque / Cynomolgus monkey, UniProt P40221 49-162 (Chlorocebus aethiops entry)); assay: cell-based or functional assay
[3] = target: T5, recombinant human IL-15 (R&D systems cat. no. 247-IL) (human, UniProt P40933 49-162); assay: cell-based or functional assay
[4] = target: T5, recombinant human IL-15 (R&D systems …); assay: cell-based or functional assay; remark: listed apart in the source
[5] = target: T6, recombinant human IL-15 (Prospec cat no. CYT230) (human, UniProt P40933 49-162); assay: ELISA, plate-bound human IL-15; printed as BC50 (half-maximal binding concentration)
Procedure: (§1) Maxisorp plates were coated with recombinant human IL-15 (Prospec cat no. CYT230) or Rhesus macaque IL-15 (MyBiosource cat. no. MBS948894) at 100 ng/well in carbonate coating buffer for 2 hours at 37° C. Since published sequences of Rhesus macaque and Cynomolgus monkey IL-15 are identical, such recombinant IL-15 protein was referred to as Macaque Monkey IL-15. Tested human IL-15 recombinant protein has a sequence identical to that provided in SEQ ID NO: 1 but with an additional methionine at the N-terminal position as usually done for expressing recombinant proteins in E. Coli. Tested recombinant Macaque Monkey IL-15 was produced in yeast and has a sequence identical to that provided in SEQ ID NO: 4 but with an additional N-terminal His tag.
(§2) The plate was then blocked with 2% normal goat serum for 30 min at 37° C. and washed 6 times with PBS-Tween (0.05% Tween-20 in PBS, v/v). Test antibodies were added to the plate in triplicate at various dilutions in PBS-Tween and the plate was incubated with gentle rocking at room temperature for 2 hours. The plate was then washed 6 times with PBS-Tween and an appropriate dilution of goat anti-human IgG antibody (Millipore cat. no. AP309P) conjugated to horseradish peroxidase (HRP) was added to the plate and left rocking at room temperature for 1 hour. The plate was then washed 6 times with PBS-Tween and incubated with TMB substrate. The reaction was stopped by the addition of 1M H₂SO₄ and read at 450 nm. Dose response curves of absorbance versus concentration were plotted and analyzed to determine half-maximal binding concentrations (BC₅₀) using the Graphpad Prism software. BC₅₀ values expressed as molarity were extrapolated from concentration in ng/ml using a 150 kDa molecular weight value for all antibodies.

[6] = target: T4, recombinant Macaque Monkey IL-15 …; assay: ELISA, plate-bound Macaque Monkey IL-15; printed as BC50 (half-maximal binding concentration)
Procedure: as §1, §2

[7] = target: T6, recombinant human IL-15 (Prospec cat …); assay: SPR (Biacore 3000), human IL-15 amine-coupled to the chip, antibody injected, 1:1 Langmuir fit
Procedure: Human IL-15 (Prospec cat no. CYT230) was immobilized onto a CMS chip (GE Healthcare) using standard amine coupling, and antibodies injected at various concentrations in 120 μl phosphate buffer saline with a flow rate of […]. Binding kinetics were analyzed on a Biacore 3000 apparatus (GE Healthcare) with a 300 seconds dissociation period. Reference signal and 0 nM antibody concentration signal were substracted and data fitted using a 1:1 (Langmuir) binding model.

[8] = target: T1, recombinant rat IL-15 (Sigma cat. no. …); assay: ELISA, plate-bound recombinant rat IL-15 (100 ng/well), HRP goat anti-human IgG, absorbance at 450 nm
Procedure: (§3) Maxisorp plates were coated with recombinant mouse IL-15 (R&D Systems cat. no. 447-ML) or rat IL-15 (Sigma cat. no. SRP4172) at 100 ng/well in carbonate coating buffer for 2 hours at 37° C. Tested IL-15 recombinant proteins have a sequence identical to that provided in SEQ ID NO: 2 (mouse IL-15) and SEQ ID NO: 3 (rat IL-15) but with an additional methionine at the N-terminal position as usually done for expressing recombinant proteins in E. Coli.
(§4) The plate was then blocked with 2% normal goat serum for 30 min at 37° C. and washed 6 times with PBS-Tween (0.05% Tween-20 in PBS, v/v). Test antibodies were added to the plate in triplicate at various dilutions in PBS-Tween and the plate was incubated with gentle rocking at room temperature for 2 hours. As positive controls, rabbit-anti-mouse IL-15 (Acris cat. no. AP01124PU-S) or rabbit anti-rat IL-15 (Biovision cat. no. 5172) antibodies were tested at the same concentrations. The plate was then washed 6 times with PBS-Tween and an appropriate dilution of HRP-conjugated goat anti-human IgG antibody (Millipore cat. no. AP309P) for humanized antibodies, or goat-anti-rabbit IgG antibody (Sigma cat. no. A 4416) for the positive controls was added and the plate was left rocking at room temperature for 1 hour. The plate was then washed 6 times with PBS-Tween and incubated with TMB substrate. The reaction was stopped by the addition of 1M H₂SO₄ and read at 450 nm. Dose response curves of absorbance versus concentration were plotted using the Graphpad Prism software.

[9] = target: recombinant human IL-2 (R&D Systems cat. no. 202-IL-010) (human, UniProt P60568 21-153); assay: ELISA, plate-bound recombinant human IL-2 (100 ng/well), HRP goat anti-human IgG, absorbance at 450 nm
Procedure: Maxisorp plates were coated with recombinant human IL-2 (R&D Systems cat. no. 202-IL-010) of SEQ ID NO: 38 at 100 ng/well in carbonate coating buffer for 2 hours at 37° C. The plate was then blocked with 2% normal goat serum for 30 min at 37° C. and washed 4 times with PBS-Tween (0.05% Tween-20 in PBS, v/v). Test antibodies or positive control biotinylated antibody (anti-IL-2 Novus Bio cat. no. NBP1-43491) were added to the plate in duplicate at 5 μg/ml in PBS-Tween and the plate was incubated with gentle rocking at room temperature for 2 hours. The plate was then washed 4 times with PBS-Tween and an appropriate dilution of goat anti-human IgG antibody (Millipore cat. no. AP309P) conjugated to horseradish peroxidase (HRP) for test antibodies, or streptavidin-HRP for positive control antibody, was added to the plate and left rocking at room temperature for 1 hour. The plate was then washed 4 times with PBS-Tween and incubated with TMB (3,3′,5,5′-tetramethylbenzidine) substrate. The reaction was stopped by the addition of 1 M H₂SO₄ and read at 450 nm.

[10] = target: T2, recombinant mouse IL-15 (R&D Systems …); assay: ELISA, plate-bound recombinant mouse IL-15 (100 ng/well), HRP goat anti-human IgG, absorbance at 450 nm
Procedure: as §3, §4

[11] = target: T3, human IL-15 (preparation not stated); assay: ELISA screen of hybridoma supernatants

T6 sequence (P40933 other isoform, or with tags, fused parts or gaps): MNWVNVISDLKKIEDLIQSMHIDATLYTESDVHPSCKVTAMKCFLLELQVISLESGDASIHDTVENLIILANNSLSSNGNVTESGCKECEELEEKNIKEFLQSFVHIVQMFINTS
T5 sequence (P40933 49-162 limits assumed): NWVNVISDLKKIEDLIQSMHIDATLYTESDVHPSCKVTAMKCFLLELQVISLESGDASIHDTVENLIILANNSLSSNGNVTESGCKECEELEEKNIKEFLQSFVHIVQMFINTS
T4 sequence (P40221 49-162): as the sequence (P40933 49-162 limits assumed) above, with L52H, A57T, S58D, S73I, V80I counted along it
T3 sequence (P40933 49-162 limits assumed): as the sequence (P40933 49-162 limits assumed) above
Sequence of recombinant human IL-2 (R&D Systems cat. no. 202-IL-010) (P60568 21-153 limits assumed): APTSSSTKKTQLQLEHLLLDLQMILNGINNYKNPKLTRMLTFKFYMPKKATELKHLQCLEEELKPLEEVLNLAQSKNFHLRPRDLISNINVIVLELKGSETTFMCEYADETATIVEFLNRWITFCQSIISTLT

Binder | half-maximal inhibitory concentration (IC50) of IL-15-induced prevention of apoptosis, type II RCD primary IEL cell line HAM RAC [1] | IC50 in Kit 225 cells (nM), Macaque Monkey IL-15 [2] | IC50 in M-07e cells (nM), Macaque Monkey IL-15 [2] | IC50 in Kit 225 cells (nM), Human IL-15 [3] | IC50 in M-07e cells (nM), Human IL-15 [3] | IC50 in M07e cells for IL-15 trans presentation [4] | EC50 [5] | EC50 [6] | Kd [7] | koff [7] | kon [7] | binding result [8] | binding result [9] | binding result [10] | binding result [11]
B1 | 2.36 nM | 0.112 nM | 0.23 nM | 0.083 nM | 0.017 nM | 0.37 nM | 1.47 nM | 0.34 nM | 0.0094 nM | 1.07e-05 s⁻¹ | 1.15e+06 M⁻¹ s⁻¹ | no binding (tested: log 3.7 (about 5000 ng/mL)) | no binding (tested: 5 µg/ml) | no binding (tested: log 3.7 (about 5000 ng/mL)) | –
B2 | – | – | – | – | – | – | – | – | – | – | – | – | – | – | binds
